The values below come from patent US9708383 (Novo Nordisk, dated 2017).

*1 amine or outer side, *2 acyl side, *3 side chain or, on linkers, in order; H or OH if unused. Where no end group is shown, it is not given here. Side-chain parts run from the residue outwards. [ ]: non-standard residue; d: D form. The star is where a group is joined. 9‑(4-carboxyphenoxy)nonanoyl = O=C(O)c1ccc(OCCCCCCCCC(=O)*)cc1; γGlu = O=C(O)[C@H](CCC(=O)[*:2])N[*:1]; C12 diacid = O=C(O)CCCCCCCCCCC(=O)*; 13‑carboxytridecanoyl = C14 diacid; Butanoyl(4-Ph) = O=C(CCCc1ccccc1)*; 12Ado = NCCCCCCCCCCCC(=O)O; AEEA = NCCOCCOCC(=O)O; Aib = CC(C)(N)C(=O)O; Aoc = NCCCCCCCC(=O)O Bounds are passed on as bounds.

The first test has as its target T1, human GLP-1 receptor (human, UniProt P43220 24-463).
T1 construct: whole, on cells; Used as purified membranes of the transfected hamster cells, not whole cells; also called hGLP-1
Nature of the test: SPA, 2.0% vs 0.005% HSA.
Turning to H[Aib]EGTFTSDVSK([AEEA-AEEA-γGlu-12Ado-γGlu-Butanoyl(4-Ph)])YLEEQAAK([AEEA-AEEA-γGlu-12Ado-γGlu-Butanoyl(4-Ph)])EFIAWLVQGRG [GLP-1 derivative of Example 113: [Aib8,Lys18,Glu22,Gln34]-GLP-1-(7-37)-peptide], the “ratio IC50 high HSA/IC50 low HSA” value was over 1.
In the case of H[Aib]EGTFTSDVSK([AEEA-AEEA-γGlu-4‑(4-nitrophenyl)butanoyl])YLEEQAAK([AEEA-AEEA-γGlu-4‑(4-nitrophenyl)butanoyl])EFIAWLVQGRG [GLP-1 derivative of Example 122: [Aib8,Lys18,Glu22,Gln34]-GLP-1-(7-37)-peptide], the “ratio IC50 high HSA/IC50 low HSA” value is over 1.
Regarding HAEGTFTSDVSK([AEEA-AEEA-γGlu-C12 diacid])YLEEQAVREFIAK([AEEA-AEEA-γGlu-C12 diacid])LVG [GLP-1 derivative of Example 11: [Lys18,Glu22,Val25,Arg26,Lys31,Gly34]-GLP-1-(7-34)-peptide], the “ratio IC50 high HSA/IC50 low HSA” value was over 1.
Same read-out and setting: to H[Aib]EGTFTSDVSK([AEEA-AEEA-γGlu-4‑(4-chlorophenyl)butanoyl])YLEEQAAK([AEEA-AEEA-γGlu-4‑(4-chlorophenyl)butanoyl])EFIAWLVQGRG [GLP-1 derivative of Example 121: [Aib8,Lys18,Glu22,Gln34]-GLP-1-(7-37)-peptide] belongs over 1.
On the same count and under the same terms, then HAEGTFTSDVSK([γGlu-AEEA-AEEA-13‑carboxytridecanoyl])YLEEQAAREFIAK([γGlu-AEEA-AEEA-13‑carboxytridecanoyl])LVRGRG [GLP-1 derivative of Example 116: [Lys18,Glu22,Arg26,Lys31,Arg34]-GLP-1-(7-37)-peptide], with over 1.
On the same count and under the same terms, then HAEGTFTSDVSK([AEEA-AEEA-γGlu-13‑carboxytridecanoyl])YLEEQAVREFIK([AEEA-AEEA-γGlu-13‑carboxytridecanoyl])WLVG [GLP-1 derivative of Example 50: [Lys18,Glu22,Val25,Arg26,Lys30,Gly34]-GLP-1-(7-34)-peptide], with over 1.
Regarding HAEGTFTSDVSK([AEEA-AEEA-γGlu-13‑carboxytridecanoyl])YLEEQAVRLFIK([AEEA-AEEA-γGlu-13‑carboxytridecanoyl])WLVG [GLP-1 derivative of Example 53: [Lys18,Glu22,Val25,Arg26,Leu27,Lys30,Gly34]-GLP-1-(7-34)-peptide], the “ratio IC50 high HSA/IC50 low HSA” value is over 1.
Regarding HAEGTFTSDVSK([γGlu-AEEA-γGlu-13‑carboxytridecanoyl])YLEEQAARK([γGlu-AEEA-γGlu-13‑carboxytridecanoyl])FIAHLVG [GLP-1 derivative of Example 59: [Lys18,Glu22,Arg26,Lys27,His31,Gly34]-GLP-1-(7-34)-peptide], the “ratio IC50 high HSA/IC50 low HSA” value is over 1.
On to HAEGTFTSDVSK([AEEA-AEEA-γGlu-9‑(4-carboxyphenoxy)nonanoyl])YLEEQAARK([AEEA-AEEA-γGlu-9‑(4-carboxyphenoxy)nonanoyl])FIAHLVG [GLP-1 derivative of Example 64: [Lys18,Glu22,Arg26,Lys27,His31,Gly34]-GLP-1-(7-34)-peptide], for which the “ratio IC50 high HSA/IC50 low HSA” value is over 1.
On the same count and under the same terms, to HAEGTFTSDVSK([AEEA-AEEA-γGlu-13‑carboxytridecanoyl])YLEEQAVREFIK([AEEA-AEEA-γGlu-13‑carboxytridecanoyl])HLVG [GLP-1 derivative of Example 52: [Lys18,Glu22,Val25,Arg26,Lys30,His31,Gly34]-GLP-1-(7-34)-peptide] belongs over 1; to HAEGTFTSDVSK([AEEA-AEEA-γGlu-C12 diacid])YLEEQAVREFIAHLVK([AEEA-AEEA-γGlu-C12 diacid]) [GLP-1 derivative of Example 66: [Lys18,Glu22,Val25,Arg26,His31]-GLP-1-(7-34)-peptide], over 1; to H[Aib]EGTFTSDVSK([AEEA-AEEA-γGlu-Aoc-γGlu-Butanoyl(4-Ph)])YLEEQAAK([AEEA-AEEA-γGlu-Aoc-γGlu-Butanoyl(4-Ph)])EFIAWLVQGRG [GLP-1 derivative of Example 109: [Aib8,Lys18,Glu22,Gln34]-GLP-1-(7-37)-peptide], over 1.

The target in another test is T1, human GLP-1 receptor. Nature of the test: SPA, displacement of 125I-GLP-1(7-36)NH2, 0.005% HSA.
H[Aib]EGTFTSDVSK([AEEA-AEEA-γGlu-12Ado-γGlu-Butanoyl(4-Ph)])YLEEQAAK([AEEA-AEEA-γGlu-12Ado-γGlu-Butanoyl(4-Ph)])EFIAWLVQGRG [GLP-1 derivative of Example 113: [Aib8,Lys18,Glu22,Gln34]-GLP-1-(7-37)-peptide] showed an IC50 of under 1 µM.
H[Aib]EGTFTSDVSK([AEEA-AEEA-γGlu-4‑(4-nitrophenyl)butanoyl])YLEEQAAK([AEEA-AEEA-γGlu-4‑(4-nitrophenyl)butanoyl])EFIAWLVQGRG [GLP-1 derivative of Example 122: [Aib8,Lys18,Glu22,Gln34]-GLP-1-(7-37)-peptide] showed a concentration for half-maximal inhibition (IC50) of under 1 µM.
HAEGTFTSDVSK([AEEA-AEEA-γGlu-C12 diacid])YLEEQAVREFIAK([AEEA-AEEA-γGlu-C12 diacid])LVG [GLP-1 derivative of Example 11: [Lys18,Glu22,Val25,Arg26,Lys31,Gly34]-GLP-1-(7-34)-peptide] came in with an IC50 of under 1 µM.
With H[Aib]EGTFTSDVSK([AEEA-AEEA-γGlu-4‑(4-chlorophenyl)butanoyl])YLEEQAAK([AEEA-AEEA-γGlu-4‑(4-chlorophenyl)butanoyl])EFIAWLVQGRG [GLP-1 derivative of Example 121: [Aib8,Lys18,Glu22,Gln34]-GLP-1-(7-37)-peptide], the half-inhibitory concentration (IC50) was under 1 µM.
The molecule HAEGTFTSDVSK([γGlu-AEEA-AEEA-13‑carboxytridecanoyl])YLEEQAAREFIAK([γGlu-AEEA-AEEA-13‑carboxytridecanoyl])LVRGRG [GLP-1 derivative of Example 116: [Lys18,Glu22,Arg26,Lys31,Arg34]-GLP-1-(7-37)-peptide] had an IC50 of under 1 µM.
On to HAEGTFTSDVSK([AEEA-AEEA-γGlu-13‑carboxytridecanoyl])YLEEQAVREFIK([AEEA-AEEA-γGlu-13‑carboxytridecanoyl])WLVG [GLP-1 derivative of Example 50: [Lys18,Glu22,Val25,Arg26,Lys30,Gly34]-GLP-1-(7-34)-peptide], for which the concentration for half-maximal inhibition (IC50) was under 1 µM.
For HAEGTFTSDVSK([AEEA-AEEA-γGlu-13‑carboxytridecanoyl])YLEEQAVRLFIK([AEEA-AEEA-γGlu-13‑carboxytridecanoyl])WLVG [GLP-1 derivative of Example 53: [Lys18,Glu22,Val25,Arg26,Leu27,Lys30,Gly34]-GLP-1-(7-34)-peptide], the IC50 was under 1 µM.
Turning to HAEGTFTSDVSK([γGlu-AEEA-γGlu-13‑carboxytridecanoyl])YLEEQAARK([γGlu-AEEA-γGlu-13‑carboxytridecanoyl])FIAHLVG [GLP-1 derivative of Example 59: [Lys18,Glu22,Arg26,Lys27,His31,Gly34]-GLP-1-(7-34)-peptide], the half-inhibitory concentration (IC50) was under 1 µM.
For HAEGTFTSDVSK([AEEA-AEEA-γGlu-9‑(4-carboxyphenoxy)nonanoyl])YLEEQAARK([AEEA-AEEA-γGlu-9‑(4-carboxyphenoxy)nonanoyl])FIAHLVG [GLP-1 derivative of Example 64: [Lys18,Glu22,Arg26,Lys27,His31,Gly34]-GLP-1-(7-34)-peptide], the IC50 is under 1 µM.
HAEGTFTSDVSK([AEEA-AEEA-γGlu-13‑carboxytridecanoyl])YLEEQAVREFIK([AEEA-AEEA-γGlu-13‑carboxytridecanoyl])HLVG [GLP-1 derivative of Example 52: [Lys18,Glu22,Val25,Arg26,Lys30,His31,Gly34]-GLP-1-(7-34)-peptide] came in with an IC50 of under 1 µM.
For HAEGTFTSDVSK([AEEA-AEEA-γGlu-C12 diacid])YLEEQAVREFIAHLVK([AEEA-AEEA-γGlu-C12 diacid]) [GLP-1 derivative of Example 66: [Lys18,Glu22,Val25,Arg26,His31]-GLP-1-(7-34)-peptide], the half-inhibitory concentration (IC50) was under 1 µM.
As for H[Aib]EGTFTSDVSK([AEEA-AEEA-γGlu-Aoc-γGlu-Butanoyl(4-Ph)])YLEEQAAK([AEEA-AEEA-γGlu-Aoc-γGlu-Butanoyl(4-Ph)])EFIAWLVQGRG [GLP-1 derivative of Example 109: [Aib8,Lys18,Glu22,Gln34]-GLP-1-(7-37)-peptide], the IC50 is under 1 µM.
